Test results published in patent US20090227507A1, “Angiotensin (1-7) Dosage Forms and Uses Thereof” (UNIVERSITY OF SOUTHERN CALIFORNIA, priority 2008, published 2009).

Assay: Hematology profile (CBC with differential, platelet count) in healthy men;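 on Platelet Count, Median Change from Baseline: Thousands of platelets per mm³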;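 on Platelet Count, Median: Thousands of platelets per mm³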
Format: in vivo, human
Settings: for number of various white blood cell types in peripheral blood above baseline levels: human administration
Method: Pharmacological Effect: The following evaluations (under efficacy and safety in the protocol) were performed: • Effects on the number of mature blood cells: • 1. CBC (with differential), platelet count, reticulocyte count. • Effects on early hematopoietic progenitor cells and mature lymphocyte subsets in the periphery: • 1. Flow cytometry to evaluate frequency of peripheral blood progenitor cells (eg, CD34^+) and lymphocyte subsets (eg, CD3, CD4, CD8) in peripheral blood. • 2. Collection of blood for later possible culture for progenitor cells (eg, colony forming units-granulocyte/macrophage [CFU-GM]) to evaluate potential effects on CD34^+ hematopoietic progenitor cells in peripheral blood. • 3.
The effect of USB003 on the number of mature blood cells was assessed by the complete blood count with differential, platelet and reticulocyte counts. The effects on early hematopoietic progenitor cells and mature lymphocyte subsets in the periphery were assessed by flow cytometry. In addition, blood was collected and processed to enable culture of progenitors at a later time.
Red blood cell (RBC) count, RBC indices, white blood cell count (WBC) with differential, reticulocyte count, platelet count, hemoglobin (Hb), hematocrit (Hct), plasma hemoglobin, peripheral flow cytometry, including CD34^+, flow cytometry for enumeration of CD3, CD4, and CD8 lymphocytes, and culture for progenitor cells in peripheral blood including colony-forming units-granulocyte/macrophage (CFU-GM).

[1] = 300 μg/kg, N = 8, baseline to Day 8
[2] = 300 μg/kg, N = 8, baseline to Day 20
[3] = 300 μg/kg, Study Termination Visit Day 19
[4] = 300 μg/kg, repeat test 10 days later
[5] = Subject 042, 300 μg/kg, Day 29 U (unscheduled)

Substance: Asp-Arg-Val-Tyr-Ile-His-Pro [USB003]
- Eosinophils shift L-N, number of subjects [1]: — (“—” = 0)
- Eosinophils shift N-H, number of subjects [1]: — (“—” = 0)
- Eosinophils shift N-L, number of subjects [1]: — (“—” = 0)
- Hematocrit shift H-N, number of subjects [1]: — (“—” = 0)
- Hematocrit shift L-N, number of subjects [1]: — (“—” = 0)
- Hematocrit shift N-H, number of subjects [1]: — (“—” = 0)
- Hematocrit shift N-L, number of subjects [1]: 2
- Hemoglobin shift H-N, number of subjects [1]: — (“—” = 0)
- Hemoglobin shift L-N, number of subjects [1]: — (“—” = 0)
- Hemoglobin shift N-H, number of subjects [1]: — (“—” = 0)
- Hemoglobin shift N-L, number of subjects [1]: 2
- Lymphocytes shift H-N, number of subjects [1]: — (“—” = 0)
- Lymphocytes shift L-N, number of subjects [1]: — (“—” = 0)
- Lymphocytes shift N-H, number of subjects [1]: — (“—” = 0)
- Lymphocytes shift N-L, number of subjects [1]: — (“—” = 0)
- Plasma Hemoglobin shift H-N, number of subjects [1]: — (“—” = 0)
- Plasma Hemoglobin shift L-N, number of subjects [1]: — (“—” = 0)
- Plasma Hemoglobin shift N-H, number of subjects [1]: — (“—” = 0)
- Plasma Hemoglobin shift N-L, number of subjects [1]: — (“—” = 0)
- Platelet Count shift H-N, number of subjects [1]: — (“—” = 0)
- Platelet Count shift L-N, number of subjects [1]: 1
- Platelet Count shift N-H, number of subjects [1]: — (“—” = 0)
- Platelet Count shift N-L, number of subjects [1]: — (“—” = 0)
- RBC shift H-N, number of subjects [1]: — (“—” = 0)
- RBC shift L-N, number of subjects [1]: — (“—” = 0)
- RBC shift N-H, number of subjects [1]: — (“—” = 0)
- RBC shift N-L, number of subjects [1]: 1
- Segmented Neutrophils shift H-N, number of subjects [1]: — (“—” = 0)
- Segmented Neutrophils shift L-N, number of subjects [1]: — (“—” = 0)
- Segmented Neutrophils shift N-H, number of subjects [1]: — (“—” = 0)
- Segmented Neutrophils shift N-L, number of subjects [1]: — (“—” = 0)
- Absolute Eosinophils shift H-N, number of subjects [2]: — (“—” = 0)
- Absolute Eosinophils shift L-N, number of subjects [2]: — (“—” = 0)
- Absolute Eosinophils shift N-H, number of subjects [2]: — (“—” = 0)
- Absolute Eosinophils shift N-L, number of subjects [2]: — (“—” = 0)
- Absolute Neutrophils shift H-N, number of subjects [2]: — (“—” = 0)
- Absolute Neutrophils shift L-N, number of subjects [2]: — (“—” = 0)
- Absolute Neutrophils shift N-H, number of subjects [2]: 1
- Absolute Neutrophils shift N-L, number of subjects [2]: — (“—” = 0)
- Absolute Reticulocytes shift H-N, number of subjects [2]: — (“—” = 0)
- Absolute Reticulocytes shift L-N, number of subjects [2]: — (“—” = 0)
- Absolute Reticulocytes shift N-H, number of subjects [2]: — (“—” = 0)
- Absolute Reticulocytes shift N-L, number of subjects [2]: — (“—” = 0)
- Eosinophils shift H-N, number of subjects [2]: 1
- Eosinophils shift L-N, number of subjects [2]: — (“—” = 0)
- Eosinophils shift N-H, number of subjects [2]: 2
- Eosinophils shift N-L, number of subjects [2]: — (“—” = 0)
- Hematocrit shift H-N, number of subjects [2]: — (“—” = 0)
- Hematocrit shift L-N, number of subjects [2]: — (“—” = 0)
- Hematocrit shift N-H, number of subjects [2]: — (“—” = 0)
- Hematocrit shift N-L, number of subjects [2]: 4
- Hemoglobin shift H-N, number of subjects [2]: — (“—” = 0)
- Hemoglobin shift L-N, number of subjects [2]: — (“—” = 0)
- Hemoglobin shift N-H, number of subjects [2]: — (“—” = 0)
- Hemoglobin shift N-L, number of subjects [2]: 3
- Lymphocytes shift H-N, number of subjects [2]: 1
- Lymphocytes shift L-N, number of subjects [2]: — (“—” = 0)
- Lymphocytes shift N-H, number of subjects [2]: — (“—” = 0)
- Lymphocytes shift N-L, number of subjects [2]: — (“—” = 0)
- Monocytes shift H-N, number of subjects [2]: — (“—” = 0)
- Monocytes shift L-N, number of subjects [2]: — (“—” = 0)
- Monocytes shift N-H, number of subjects [2]: — (“—” = 0)
- Monocytes shift N-L, number of subjects [2]: — (“—” = 0)
- Plasma Hemoglobin shift H-N, number of subjects [2]: — (“—” = 0)
- Plasma Hemoglobin shift L-N, number of subjects [2]: — (“—” = 0)
- Plasma Hemoglobin shift N-H, number of subjects [2]: 1
- Plasma Hemoglobin shift N-L, number of subjects [2]: — (“—” = 0)
- Platelet Count shift H-N, number of subjects [2]: — (“—” = 0)
- Platelet Count shift L-N, number of subjects [2]: 1
- Platelet Count shift N-H, number of subjects [2]: — (“—” = 0)
- Platelet Count shift N-L, number of subjects [2]: — (“—” = 0)
- RBC shift H-N, number of subjects [2]: — (“—” = 0)
- RBC shift L-N, number of subjects [2]: — (“—” = 0)
- RBC shift N-H, number of subjects [2]: — (“—” = 0)
- RBC shift N-L, number of subjects [2]: 2
- RDW shift H-N, number of subjects [2]: — (“—” = 0)
- RDW shift L-N, number of subjects [2]: — (“—” = 0)
- RDW shift N-H, number of subjects [2]: — (“—” = 0)
- RDW shift N-L, number of subjects [2]: — (“—” = 0)
- Segmented Neutrophils shift H-N, number of subjects [2]: — (“—” = 0)
- Segmented Neutrophils shift L-N, number of subjects [2]: — (“—” = 0)
- Segmented Neutrophils shift N-H, number of subjects [2]: 2
- Segmented Neutrophils shift N-L, number of subjects [2]: — (“—” = 0)
- WBC shift H-N, number of subjects [2]: — (“—” = 0)
- WBC shift L-N, number of subjects [2]: — (“—” = 0)
- WBC shift N-H, number of subjects [2]: 1
- WBC shift N-L, number of subjects [2]: — (“—” = 0)
- Absolute Neutrophils, Median (300 μg/kg, Baseline): 2.85 thousands/mm^3
- Hematocrit, Median (300 μg/kg, Baseline): 45.25%
- Hemoglobin, Median (300 μg/kg, Baseline): 15.60 g/dL
- Lymphocytes, Median (300 μg/kg, Baseline): 33.60%
- Platelet Count, Median (300 μg/kg, Baseline): 216.0 thousands/mm^3
- WBC, Median (300 μg/kg, Baseline): 5.15 thousands/mm^3
- Absolute Neutrophils, Median (300 μg/kg, Day 8): 2.95 thousands/mm^3
- Absolute Neutrophils, Median Change from Baseline (300 μg/kg, Day 8): −0.10 thousands/mm^3
- Hematocrit, Median (300 μg/kg, Day 8): 42.30%
- Hematocrit, Median Change from Baseline (300 μg/kg, Day 8): −2.10%
- Hemoglobin, Median (300 μg/kg, Day 8): 14.40 g/dL
- Hemoglobin, Median Change from Baseline (300 μg/kg, Day 8): -1.15 g/dL
- Lymphocytes, Median (300 μg/kg, Day 8): 34.50%
- Lymphocytes, Median Change from Baseline (300 μg/kg, Day 8): 1.00%
- Platelet Count, Median (300 μg/kg, Day 8): 243.0 thousands/mm^3
- Platelet Count, Median Change from Baseline (300 μg/kg, Day 8): 22.5 thousands/mm^3
- WBC, Median (300 μg/kg, Day 8): 5.65 thousands/mm^3
- WBC, Median Change from Baseline (300 μg/kg, Day 8): −0.30 thousands/mm^3
- Absolute Neutrophils, Median (300 μg/kg, Day 20): 3.80 thousands/mm^3
- Absolute Neutrophils, Median Change from Baseline (300 μg/kg, Day 20): 0.75 thousands/mm^3
- Hematocrit, Median (300 μg/kg, Day 20): 40.45%
- Hematocrit, Median Change from Baseline (300 μg/kg, Day 20): −3.45%
- Hemoglobin, Median (300 μg/kg, Day 20): 14.0 g/dL
- Hemoglobin, Median Change from Baseline (300 μg/kg, Day 20): -1.30 g/dL
- Lymphocytes, Median (300 μg/kg, Day 20): 29.75%
- Lymphocytes, Median Change from Baseline (300 μg/kg, Day 20): −3.90%
- Platelet Count, Median (300 μg/kg, Day 20): 243.5 thousands/mm^3
- Platelet Count, Median Change from Baseline (300 μg/kg, Day 20): 14 thousands/mm^3
- WBC, Median (300 μg/kg, Day 20): 6.55 thousands/mm^3
- WBC, Median Change from Baseline (300 μg/kg, Day 20): 1.30 thousands/mm^3
- WBC value, Subject 042 [3]: 13,400 cells/mm^3
- segmented neutrophils, Subject 042 [3]: 84.9%
- WBC count, Subject 042 [4]: 8,900 cells/mm^3
- segmented neutrophils, Subject 042 [4]: 73.5%
- total WBC and neutrophil concentrations (200 and 300 μg/kg SC): increases
- WBC Significance (Subject 027, 200 μg/kg, Day 11): CS AE
- WBC Value (Subject 027, 200 μg/kg, Day 11): 12.7 10^3/mm³
- WBC High/Low Normal/Abnormal (Subject 027, 200 μg/kg, Day 14): N
- WBC Value (Subject 027, 200 μg/kg, Day 14): 7.3 10^3/mm³
- Segmented Neutrophils Significance (Subject 042, 300 μg/kg, Day 19): CS AE
- Segmented Neutrophils Value (Subject 042, 300 μg/kg, Day 19): 84.9%
- WBC Significance (Subject 042, 300 μg/kg, Day 19): CS AE
- WBC Value (Subject 042, 300 μg/kg, Day 19): 13.4 10^3/mm³
- Segmented Neutrophils Significance [5]: NCS
- Segmented Neutrophils Value [5]: 73.5%
- WBC High/Low Normal/Abnormal [5]: N
- WBC Value [5]: 8.9 10^3/mm³
- peripheral blood concentrations of WBC, neutrophils, CD3, CD34+, CD4 and CD8 (during the administration of USB003): elevations
- time for all hematological parameters to return to baseline (following discontinuation of USB003 administration): ≤ 12 days
- number of various white blood cell types in peripheral blood above baseline levels (doses of 300 μg/kg or more): increasing the number of various white blood cell types
- number of various white blood cell types in peripheral blood above baseline levels (lower doses (200 μg/kg)): did not provide such an increase over baseline
